From the Immune Epitope Database (IEDB) come the findings set out here.

A value given as a limit tells only on which side of the number the result lay.

The target of test [1] is HLA-A*02:06. The test can be described thus: IEDB peptide-MHC binding, purified MHC/competitive/radioactivity; ≥ and ≤ were set here for values at or beyond the usual limits of such assays.
Test [2] has as its target HLA-A*02:03. The test is described as above.
In test [3] the target is HLA-A*02:01. The test is described as above. To be noted: source organism: Vaccinia virus WR.
For test [4], the target named is HLA-A*02:02. The test can be described thus: IEDB peptide-MHC binding, cellular MHC/competitive/fluorescence; ≥ and ≤ were set here for values at or beyond the usual limits of such assays.
In test [5] the target is HLA-A*68:02. The test is described as above. To be noted: source organism: Vaccinia virus WR.
In test [6] the target is HLA-A*02:01. The description is as above.
Test [7] has as its target HLA-A*68:02. The test is described as follows: IEDB peptide-MHC binding, purified MHC/competitive/radioactivity; ≥ and ≤ were set here for values at or beyond the usual limits of such assays.
In test [8] the target is HLA-A*02:06. The test can be described thus: IEDB peptide-MHC binding, cellular MHC/competitive/fluorescence; ≥ and ≤ were set here for values at or beyond the usual limits of such assays. The note with it: source organism: Vaccinia virus WR.
Setting [9] is: source organism: Vaccinia virus WR.
Where [10] appears, read: source organism: Influenza A virus.
The mark [11] stands for this setting: source organism: Mammarenavirus lassaense.

For the sequence DLLLPSTDV, the 50% inhibitory concentration (IC50) came out at 1.06 µM in test [1] (setting [9]); 3.9 µM in test [2] (setting [9]); 1.48 µM in test [3]; 15.1 µM in test [4] (setting [9]); 13.3 µM in test [5].

As to FIISTLNKIL, the concentration for half-maximal inhibition (IC50) in test [1] (setting [9]) came out at 0.0081 µM; in test [2] (setting [9]), 0.0018 µM; in test [3] it was 0.17 µM; in test [4] (setting [9]), 5.08 µM; in test [5] it was 11.7 µM.

In the case of DLKHATDYIA, the concentration for half-maximal inhibition (IC50) in test [1] (setting [9]) amounted to 1.05 µM; in test [2] (setting [9]), 2.96 µM; in test [4] (setting [9]), 8.76 µM; in test [5], 9.31 µM; in test [6] (setting [9]) it was 16.3 µM.

With LVQYRILPMI, the half-inhibitory concentration (IC50) in test [1] (setting [9]) is 0.712 µM; in test [2] (setting [9]), 1.2 µM; in test [3] it was 2.54 µM; in test [4] (setting [9]), 12.5 µM; in test [5], 12.5 µM.

Regarding KTPLYYLSGT, the IC50 is 1.42 µM in test [1] (setting [9]); 3.11 µM in test [2] (setting [9]); 21.9 µM in test [4] (setting [9]); 34.3 µM in test [5]; 45 µM in test [6] (setting [9]).

For NVMGMIGI, the 50% inhibitory concentration (IC50) stood at 2.06 µM in test [1] (setting [10]); 4.81 µM in test [2] (setting [10]); 0.187 µM in test [7] (setting [10]); 5.92 µM in test [4] (setting [10]); 14.5 µM in test [6] (setting [10]).

In the case of CTIVDSMII, the IC50 in test [1] (setting [9]) turned out to be 4.58 µM; in test [2] (setting [9]), 1.79 µM; in test [7] (setting [9]) it was 3.08 µM; in test [4] (setting [9]), 13.9 µM; in test [6] (setting [9]) it was 5.16 µM.

Take VLEKKVCAI: the IC50 in test [1] (setting [9]) was found to be 3.39 µM; in test [2] (setting [9]), 2.31 µM; in test [3], 1.37 µM; in test [4] (setting [9]), 14.4 µM; in test [5] it was 45.4 µM.

As to CIVAAVIIM, the IC50 in test [2] (setting [9]) is 1.42 µM; in test [7] (setting [9]), 4.44 µM; in test [3], 1.57 µM; in test [8] it was 32.7 µM; in test [4] (setting [9]), 14.3 µM.

Consider MAAAKTPVIV, for which the IC50 in test [1] (setting [9]) is 3.63 µM; in test [2] (setting [9]), 0.156 µM; in test [7] (setting [9]), 1.21 µM; in test [4] (setting [9]) it was 6.01 µM; in test [6] (setting [9]) it was 8.47 µM.

DINVIGLIV: the IC50 turned out to be 4.04 µM in test [2] (setting [9]); 2.27 µM in test [7] (setting [9]); 0.387 µM in test [3]; 5.53 µM in test [8]; 9.8 µM in test [4] (setting [9]).

For the sequence KTRLFRSPQV, the IC50 stood at 0.433 µM in test [1] (setting [9]); 0.984 µM in test [2] (setting [9]); 9.27 µM in test [4] (setting [9]); 6.21 µM in test [5]; 7.06 µM in test [6] (setting [9]).

MSIQLINKAV: the IC50 in test [1] (setting [11]) stood at 0.619 µM; in test [2] (setting [11]), 1.8 µM; in test [7] (setting [11]), 0.011 µM; in test [4] (setting [11]), 11.4 µM; in test [6] (setting [11]) it was 7.21 µM.

As for NIKPVIVPDI, the IC50 is 0.945 µM in test [1] (setting [9]); 0.745 µM in test [2] (setting [9]); 10.3 µM in test [4] (setting [9]); 9.46 µM in test [5]; not below 70 µM in test [6] (setting [9]).

On to QVKELGIAI, for which the IC50 is 3.71 µM in test [1] (setting [9]); 0.882 µM in test [2] (setting [9]); 9.05 µM in test [4] (setting [9]); 7.56 µM in test [5]; 10.7 µM in test [6] (setting [9]).

Consider SIGFEARIV, for which the IC50 turned out to be 1.31 µM in test [1] (setting [9]); 0.575 µM in test [2] (setting [9]); 10.1 µM in test [4] (setting [9]); 19.2 µM in test [5]; 7.3 µM in test [6] (setting [9]).

On to AVTLNRIKI, for which the concentration for half-maximal inhibition (IC50) worked out at 3.34 µM in test [2] (setting [9]); 4.95 µM in test [7] (setting [9]); 1.15 µM in test [3]; 7.61 µM in test [8]; 10.8 µM in test [4] (setting [9]).

As to STIANSNII, the IC50 was found to be 1.24 µM in test [1] (setting [9]); 1.47 µM in test [2] (setting [9]); 0.035 µM in test [7] (setting [9]); 6.12 µM in test [4] (setting [9]); 12.7 µM in test [6] (setting [9]).

Regarding CALVSDCAST, the IC50 was determined as 2.6 µM in test [1] (setting [9]); 0.146 µM in test [2] (setting [9]); 0.149 µM in test [3]; 6.41 µM in test [4] (setting [9]); 52.9 µM in test [5].

Turning to STVDVRNIV, the IC50 was found to be 1.63 µM in test [1] (setting [9]); 3.48 µM in test [2] (setting [9]); 0.018 µM in test [7] (setting [9]); 6.33 µM in test [4] (setting [9]); 8.07 µM in test [6] (setting [9]).

Take NINIEVKLFI: the 50% inhibitory concentration (IC50) worked out at 2.32 µM in test [1] (setting [9]); 2.05 µM in test [2] (setting [9]); 1.17 µM in test [3]; 12.5 µM in test [4] (setting [9]); 7.44 µM in test [5].

KINNNRIVAM: the IC50 in test [1] (setting [9]) turned out to be 3.18 µM; in test [2] (setting [9]), 1.3 µM; in test [4] (setting [9]) it was 9.12 µM; in test [5], 22.7 µM; in test [6] (setting [9]), 23.7 µM.

For YIWIKNLET, the IC50 in test [1] (setting [9]) was 0.347 µM; in test [2] (setting [9]), 1.18 µM; in test [4] (setting [9]) it was 12.6 µM; in test [5] it was 32 µM.
